Target: CD33 (UniProt P20138 18-364, limits assumed)
Test: cell-based or functional assay

CD33, sequence (P20138 18-364 limits assumed): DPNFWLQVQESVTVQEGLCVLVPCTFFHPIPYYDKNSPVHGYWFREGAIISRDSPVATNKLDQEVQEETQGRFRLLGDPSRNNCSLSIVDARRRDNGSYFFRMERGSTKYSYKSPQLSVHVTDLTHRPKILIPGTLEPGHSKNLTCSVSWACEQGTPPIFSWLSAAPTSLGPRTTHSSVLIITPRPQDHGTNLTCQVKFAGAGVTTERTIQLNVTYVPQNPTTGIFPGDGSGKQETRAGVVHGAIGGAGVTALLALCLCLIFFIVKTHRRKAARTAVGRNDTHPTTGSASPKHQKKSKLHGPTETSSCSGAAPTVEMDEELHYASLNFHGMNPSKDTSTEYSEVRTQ

B1: AMV564 (bispecific antibody)
chain: DIQMTQSPSSLSASVGDRVTITCRSSTGAVTTSNYANWVQQKPGKAPKALIGGTNKRAPGVPSRFSGSLIGDKATLTISSLQPEDFATYYCALWYSNLWVFGQGTKVEIKGGSGGSQVQLVQSGAEVKKPGASVKVSCKASGYTFTSYDINWVRQAPGQGLEWMGWMNPNSGNTGFAQKFQGRVTMTRDTSTSTVYMELSSLRSEDTAVYYCARDRANTDYSLGMDVWGQGTLVTVSSGGSGQSVLTQPPSASGTPGQRVTISCSGSRSNIGSNTVNWYQQLPGTAPKLLIYGNNQRPSGVPDRFSGSKSGTSASLAISGLQSEDEADYYCATWDDSLIGWVFGGGTKLTVLGGSGGSEVQLVESGGGLVQPGGSLRLSCAASGFTFSTYAMNWVRQAPGKGLEWVGRIRSKYNNYATYYADSVKDRFTISRDDSKNSLYLQMNSLKTEDTAVYYCARHGNFGNSYVSYFAYWGQGTLVTVSS
- CD4+及びCD8+T細胞増殖: > 2 fold
